Laboratory results as given in patent publication US20220220174A1 (BIMYO, published 2022).

Biological target: T1, recombinant BNIP3 (BCL-2 adenovirus E1B 19 kDa interacting protein-3) (mouse, UniProt O55003 1-187, limits assumed, labelled with DyLight 650 for the microarray)
T1 construct: Bought recombinant protein (cusabio); also called recombinant BNIP3 (cusabio)
Experiment: peptide microarray, immobilised peptide, labelled recombinant BNIP3 in solution
Description: (§1) Interaction studies. For protein-peptide interaction studies, peptide libraries were synthesised and immobilised on microarray slides.
(§2) Microarray. […] As labelling kit a DyLight Microscale Antibody Labeling Kit (Thermo) with label Dylight 650 was used. The assay was performed using the automated TECAN HS4800 microarray processing station. Microarrays were incubated with customer provided samples diluted in blocking buffer for 2 h at 30° C. Before each step, microarrays were washed with washing buffer. Microarrays were scanned using a high-resolution fluorescence scanner. Laser settings and applied resolution were identical for all performed measurements. The resulting images were analyzed und quantified using spot-recognition software GenePix (Molecular Devices). […] For further data evaluation, the so called MMC2 values were determined. The MMC2 equals the mean value of all three instances on the microarray except when the coefficient of variation (CV)—standard-deviation divided by the mean value—is larger 0.5. In this case the mean of the two closest values (MC2) is assigned to MMC2. All steps were performed by JPT Peptide Technologies (Berlin, Germany).

Binder	Fluorescence intensity [arbitrary units]
MSQSGEENLQGSWVELHFSN (Peptide immobilised on the microarray; also called BNIP3 1-20) [BNIP3-20A peptide sequence MSQSGEENLQGSWVELHFSN (BNIP3 amino acids 1-20, wild type)]	1040
MSQSGEENLQGSWVELCFSN (Peptide immobilised on a microarray slide; attachment chemistry not stated., Peptide immobilised on the microarray) [substituted BNIP3-20A peptide MSQSGEENLQGSWVELCFSN (H17 -> C)]	6790
MSQSGEENLQGSWVELYFSN (Peptide immobilised on a microarray slide; attachment chemistry not stated., Peptide immobilised on the microarray) [substituted BNIP3-20A peptide MSQSGEENLQGSWVELYFSN (H17 -> Y)]	7990
MSQSGEENLQGSWVELHFFN (Peptide immobilised on the microarray) [substituted BNIP3-20A peptide MSQSGEENLQGSWVELHFFN (S19 -> F)]	15000
MSQSGYENLQGSWVELHFSN (Peptide immobilised on a microarray slide; attachment chemistry not stated., Peptide immobilised on the microarray) [substituted BNIP3-20A peptide MSQSGYENLQGSWVELHFSN (E6 -> Y)]	13100
MSQSGEENLQYSWVELHFSN (Peptide immobilised on a microarray slide; attachment chemistry not stated., Peptide immobilised on the microarray) [substituted BNIP3-20A peptide MSQSGEENLQYSWVELHFSN (G11 -> Y)]	10200
MSQSGEENLQGSWVCLHFSN (Peptide immobilised on a microarray slide; attachment chemistry not stated., Peptide immobilised on the microarray) [substituted BNIP3-20A peptide MSQSGEENLQGSWVCLHFSN (E15 -> C)]	7150
MSQSGEENLQGCWVELHFSN (Peptide immobilised on a microarray slide; attachment chemistry not stated., Peptide immobilised on the microarray) [substituted BNIP3-20A peptide MSQSGEENLQGCWVELHFSN (S12 -> C)]	7040

Biological target: T1, recombinant BNIP3 (BCL-2 adenovirus E1B …)
Experiment: as above
Remark: another data set of the same source
Description: as §1, §2

Binder	Fluorescence intensity [arbitrary units]
MSQSGEENLQGSWVELHFSN (Peptide immobilised on the microarray; also called BNIP3 1-20) [BNIP3-20A peptide sequence MSQSGEENLQGSWVELHFSN (BNIP3 amino acids 1-20, wild type)]	1040
WVELHFSN (Peptide immobilised on the microarray; also called BNIP3 13-20) [truncated BNIP3-20A fragment WVELHFSN]	14400
SWVELHFSN (Peptide immobilised on the microarray; also called BNIP3 12-20) [truncated BNIP3-20A fragment SWVELHFSN]	4890
SGEENLQGSWVELHFSN (Peptide immobilised on the microarray; also called BNIP3 4-20) [truncated BNIP3-20A fragment SGEENLQGSWVELHFSN]	2660
